{"source": "paper doi:10.1101/580076", "molecular_target": "HAdV-D26 fiber-knob protein (human adenovirus D serotype 26 (HAdV-D26))", "assay": "crystal structure", "data": [{"substance": "HAdV-D26 fiber-knob protein (domain or fragment)", "values": [{"measurement": "stoichiometry N", "result": 3}]}]}
